Results reported in publication PMC4715562.

Biological target: Gp7-MyH7-1526-1571 (bacteriophage φ29 | human)
Experiment: crystal structure

Gp7-MyH7-1526-1571 (domain or fragment)
stoichiometry N: 2
